Results taken from the DeepSol protein solubility set.

Experiment: soluble on expression in E. coli; label from the status in PepcDB or PDB records

Sequence | soluble on expression in E. coli
MGSSHHHHHHSSGRENLYFQGHMKPDAHQVKQFLLNLQDTICQQLTAVDGAEFVEDSWQREAGGGGRSRVLRNGGVFEQAGVNFSHVHGEAMPASATAHRPELAGRSFEAMGVSLVVHPHNPYVPTSHANVRFFIAEKPGADPVWWFGGGFDLTPFYGFEEDAIHWHRTARDLCLPFGEDVYPRYKKWCDEYFYLKHRNEQRGIGGLFFDDLNTPDFDRCFAFMQAVGKGYTDAYLPIVERRKAMAYGERERNFQLYRRGRYVEFNLVWDRGTLFGLQTGGRTESILMSMPPLVRWEYDYQPKDGSPEAALSEFIKVRDWV | soluble
MGHHHHHHGGHMSLSDDNSHSSDTISNKKGFFSLLLSQLFHGEPKNRDELLALIRDSGQNDLIDEDTRDMLEGVMDIADQRVRDIMIPRSQMITLKRNQTLDECLDVIIESAHSRFPVISEDKDHIEGILMAKDLLPFMRSDAEAFSMDKVLRQAVVVPESKRVDRMLKEFRSQRYHMAIVIDEFGGVSGLVTIEDILELIVGEIEDEYDEEDDIDFRQLSRHTWTVRALASIEDFNEAFGTHFSDEEVDTIGGLVMQAFGHLPARGETIDIDGYQFKVAMADSRRIIQVHVKIPDDSPQPKLDEEGGS | soluble
IATGIPTGFKDLDDLTNGLRGGQMIIVAARPGVGKSTIALDFMRSASIKNNMASVIFSLEMSKSEIVMRLLSAETEIRLADMRGGKMDETAWEKMVQKLDKVAQAPLFIDDSANLTMMEIRSKARKLKQKHDLKMIVVDYLQLMSSGKRVESRQQEVSEFSRQLKLLAKELDVPLIAISQLNRGPESRTDKRPQLADL | not soluble
KPAKPAAKSIVTLDVKPWDDETNLEEMVANVKAIEMEGLTWGAHQFIPIGFGIKKLQINCVVEDDKVSLDDLQQSIEEDEDHVQSTDIAAMQAL | soluble
MGSDKIHHHHHHMKLLVTGATGKLGTKIVEHLLTKIEAENVIVSVRDPKKANELASRGIEVRHGDFDEPDTLQQAFAGVDRLLIISTDGEEATRIRQHTAAVEAAKAAGVGLIAYTSIANAEASQNFLARTHQVTEQLIRETGIPFLFFRNNWYLENEQSTIDAVRAGQDWLTSAGNGTVGWALQEDYAEAIATVLVDPKPTKSIYELSGPLHTQQDIAEALGQVLGRPVQVKQVDSATYTAIMQQAGVPEFLLPMLQAIQEGIAAGTLAVESQDFEHILDRPPVSLEDGLRQLVQR | not soluble
MGSDKIHHHHHHYKDLSQLKSEVDRLCRLCPWDWTFFNGNCYFFSKSQRDWHDSMTACKEMGAQLVIIKSHEEQSFLQQTSKKNSYTWMGLSDLNKEGEWYWLDGSPLSDSFEKYWKKGQPNNVGGQDCVEFRDNGWNDAKCEQRKFWICKKIATTCLS | not soluble
MGSDKIHHHHHHMENRITLRHLEAFRAIMVRKSVTGAAEMLEVTQPVVTRLIADLEERIALTLFTRTKGRLVPTPEAALLVKDVEQSLLSIERIANAATNIKSLKMGRLEIAASPNMALSFLPRAINSFTLAHPEAHVSMRMHSSPTVLDMVQRDQCDLGFAMFPARSTKSGNSETLVSAKMVAVVPKTHALATKRTLRPEHFEGERFISMMPLMESRMRIDSLMLSHGVRRHVNCETQTSAAVLQLVEAGVGISIIDPLTACGYTGTGVKFLNFEPVIRNDYSIVISQRNSSTLILKPFIDHAKREILNMVPAHLLIRS | not soluble
MSLRIFKHQGCSAVKIRSTALVKGFRQSAPYVNAHRGKTMVVMLGGEAIADKNFPNIISDIALLHSLGVKVVLVHGARPQINQILEKNQRDTPYHKGVRITDESSLGLVMQAAGQLQHAITARLSMSLNNTPMAGTQLNVVSGNFIISQPLGIDEGVDYCHSGRIRRIDVEGINRMLDLGSIVLLGPIASSVTGECFNLLSEEVATQVAIKLKADKLIGFCPQQGIIDTKGNAIAELFPSDVERLVKSMEQECAPDDEECFSTMRFLRAALKACRAGVPRSHLVSYKEDGALIQELFSFDGIGTQIVMASAEQIRQATIDDIGGIFDLIRPLEEQGILVRRSREQLEQEIHKFTIIDKDGLVIGCSALYPYPEERMAEMACVAIHPEYRDGHRGLHLLVHSKHQAKQMGIRHLFVLTTHSTHWFREQGFNEVDVEALPMAKKSLYNYQRRSKILMLQLEGHHHHHH | not soluble
MAYVESFYMDASLESDADVLPASESDMFEAQFIADVPLDGDAIIRIVDSQLAFEQRNHVVSDYCTMKAAELEKNPNQLTMNSSVMDNQQYFAPPKSESSQYAWNTNDVVSSHHQYAAQSPNIYTNDYHTSEPSDYAYI | not soluble
METFHWKVRPDMNVVSEPKVVTVKLGDGYEQRRAAGLNNQLSTYSVTIRVRKGEHPSLKAFLERHGGVRAFQWTPPYDWKLIRVVCRKWSASVGALWVTVTADFEQVVN | not soluble
MVQLNGKVAIVTGGAKGIGKAITVALAQEGAKVVINYNSSKEAAENLVNELGKEGHDVYAVQADVSKVEDANRLVEEAVNHFGKVDILVNNAGITRDRTFKKLNREDWERVIDVNLSSVFNTTSAVLPYITEAEEGRIISISSIIGQAGGFGQTNYSAAKAGMLGFTKSLALELAKTNVTVNAICPGFIDTEMVAEVPEEVRQKIVAKIPKKRFGQADEIAKGVVYLCRDGAYITGQQLNINGGLYM | not soluble
MTMTLHTKASGMALLHQIQGNELEPLNRPQLKIPLERPLGEVYLDSSKPAVYNYPEGAAYEFNAAAAANAQVYGQTGLPYGPGSEAAAFGSNGLGGFPPLNSVSPSPLMLLHPPPQLSPFLQPHGQQVPYYLENEPSGYTVREAGPPAFYRPNSDNRRQGGRERLASTNDKGSMAMESAKETRYCAVCNDYASGYHYGVWSCEGCKAFFKRSIQGHNDYMCPATNQCTIDKNRRKSCQACRLRKCYEVGMMKGGIRKDRRGGRMLKHKRQRDDGEGRGEVGSAGDMRAANLWPSPLMIKRSKKNSLALSLTADQMVSALLDAEPPILYSEYDPTRPFSEASMMGLLTNLADRELVHMINWAKRVPGFVDLTLHDQVHLLECAWLEILMIGLVWRSMEHPVKLLFAPNLLLDRNQGKCVEGMVEIFDMLLATSSRFRMMNLQGEEFVCLKSIILLNSGVYTFLSSTLKSLEEKDHIHRVLDKITDTLIHLMAKAGLTLQQQHQRLAQLLLILSHIRHMSNKGMEHLYSMKCKNVVPLYDLLLEMLDAHRLHAPTSRGGASVEETDQSHLATAGSTSSHSLQKYYITGEAEGFPATV | soluble
MGSDKIHHHHHHMDNLIIKPGYVTQFQCVGPECEDSCCYDWRISFDKKSYKNTIKHPLLATTAKSAFIETKKSTSDWADIRLNEQGACPFVNEHKLCDIHAKAGEQALSHTCKTYPRIHKVIGGNKYESLYLSCPEVTRLVLFNPNAFQFDSNISGIKQPSTPSPIWLEKTHEYSLDLLVNLGLDWEQVLLAIGLLIKVSDQVRQNILPIEELDKRLQQLKLYAQSGALAEQYKNLPYSPLPQMHAFIAVHNELCKTHSRGVRERFTSLNQAVAALCNEENNYQIDALNQAWAEHAVPALISHTDLFERYILYSIYHHHFPLIDSQQLSWEAFRLLVLDCFMIRSYLSAIAFKNKGLSESDIVMCFQLYQVVRQHKIEFTQSMSKTLEECGIDSVPAAICLLKTNI | not soluble
MAHHHHHHMGNKISTEDHIFRLKLKTKELEKLSQRSELEEKKLIGDVKKAIQAGKIELARLYAEKCIRKKNEKVNYLNLSNKLDVLVSRLEGAHRCASLVKDVGVMIPLIQKINAETNAIKIGNDVTKLENIFDEISISSELINDTVQTSSAISAPTEEVDELISKIADEHALKLDGQIGSVHPINKHLEEISNMSERIKNLK | soluble
HMSNPLGELVKALEKLSFKPSDVRIYSLLLERGGMRVSEIARELDLSARFVRDRLKVLLKRGFVRREIVEKGWVGYIYSAEKPEKVLKEFKSSILGEIERIEKMFTDGS | soluble
MNNFTYEKLHNNLQYLKLNTIEELLDNCLEIAARDSKTTMEVLDYLFEQEKKHREAAAIERRMKSAGFPVKKMLEEFDFEFQSSINKKVIEDLATLRFVHNAENIVLLGPPGVGKSHLAIALGIEAVKAGISVHFTNTGNLIERLKIANREGILEKKIRDLMKFKVLIIDEIGYLPFDDEGAHCLFQLISRRYEKSSTILTSNKSYGEWGEIFKDHVIAAALLDRILHHCTTINIKGESYRLKERKKQGIKTGLIRHNSTEILENLEHHHHHH | soluble
GPGSMRDLNKRQQKFVCGCLGITSWDGKDIPFYVETMPKINDVVWVKITQVNDTSAVVQLLEYGKREGIIPYTEVTRRRVRSMGKLIKVGRTEPAQVIRIDKDKGYIDLSKKLVTPNEAKACEAHFRQGNEVRSIVCHVAELCDIPAMDAMEMIAYPLYQREPGKHAWTWLYELNQTEDVERILGPLKLEKAISDCLMLTLKNAMRLKVLTLFAEVEITCFACDGVEAIRDVLILGRSYGEGSDPQIHLSVNIIGPPKYGIRARTDMKEEGIQRMKEAIEAMTAEIKKRGGQLKVVSPPQPHGDADEGKKGFDGEDDDDEDAD | soluble
MGHHHHHHSHVLPIYAYGHAVGKSVTGGYVYRGCESPNLNGLYIFGDFMSGRLMALQEDRKNKKWKKQDLCLGSTTSCAFPGLISTHSKFIISFAEDEAGELYFLATSYPSAYAPRGSIYKFVDPSRRAPPGKCKYKPVPVRTKSKRIPFRPLAKTVLDLLKEQSEKAARKSSSATLASGPAQGLSEKGSSKKLASPTSSKNTLRGPGTKKKARVGPHVRQGKRRKSLKSHSGRMRPSAEQKRAGRSLP | not soluble
MGSDKIHHHHHHMIQQKVRVGLLGVGLDTYWGQFEGLLPRLLTYQDEIAAKIEAMDVQVINTGMVDSPLKANECVLQLKQADVELVFLFISTYALSSTILPVAQQVGKPIIILNIQPASAIDYQKLNSMGDRGRMTGEWLAHCQACSVPEFASVLNRAGVRYDIITGYLSEDYVWEEIASWVDAVRVMYGMRTSRLGVLGHYYCGMLDVYTDLMKQSAVFGTHIELLEMCELKAYREEVSDGELKRKLDEFYDKFNVEASCSSEELVRAARTSVALDKLVNVHQLGAMAYYYEGFCGNDYENIVTSVIAGNTLLTGYGIPVAGECEVKNAQAMKIMSLLKAGGSFSEFYAMDFKDDIVLLGHDGPAHFAIAEEKVKLVPLPLYHGKPGKGLSIQMSVKPGDVTLLSVCEGRDGVFLLAAEGEAVQGETLHIGNTNSRYRFPCGARRFMDQWSKAGPSHHCAIGIGHKVSELKKLAFLLDIPIIVVE | not soluble
MGHHHHHHSHMRRAELAGLKTMAWVPAESAVEELMPRLLPVEPCDLTEGFDPSVPPRTPQEYLRRVQIEAAQCPDVVVAQIDPKKLKRKQSVNISLSGCQPAPEGYSPTLQWQQQQVAQFSTVRQNVNKHRSHWKSQQLDSNVTMPKSEDEEGWKKFCLGEKLCADGAVGPATNESPGIDYVQIGFPPLLSIVSRMNQATVTSVLEYLSNWFGERDFTPELGRWLYALLACLEKPLLPEAHSLIRQLARRCSEVRLLVDSKDDERVPALNLLICLVSRYFDQRDLADEPS | not soluble
MIRVIEKGDKVSLPFSRGILTRSITSVGIDVDLAYSIAIEVQEELVKKGKTIVTKDEIRKLTYQKLIEKGFKEEAKRYIFWRRFRKMKVPLIILLGGPTGVGKSTIATELAFRLGIRSVIGTDSIREVLRKIITPELLPTIHTSTFLAWKELKGTVTDSPIVAGFESQVSAVTVGINAIIERAVREGLNAIIEGIHVVPGFVKVEGEMTFMYMLIARSREDLEARFYERTRYSKRPADYYISHLDEILEIQDYLIRRAKKFNVPVIENVELEETVSKIMEDIMQKTIEIMKGKGLDLLEEP | soluble
